Tested on: MS2 coat protein
Experiment: apparent KD of MS2 coat protein; designed switch direction (-1 OFF switch, 1 ON switch): -1; higher = weaker reporter binding
Procedure, shortened: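 On Illumina chips, designed RNA switches with common flanks were made by stalled E. coli RNA polymerase. Titrations with SNAP-549-labelled MS2 coat protein, doubling from 0.7 or 1.5 nM to 3 µM, were done with no input, with 200 uM small-molecule ligand, or with an oligonucleotide input. Apparent KD is the median per design over clusters, from curve fits of normalised cluster fluorescence.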

[1] = Eterna round: R95, input ligand: FMN 200 uM
[2] = Eterna round: R95, input ligand: microRNA oligo, concentration not stated
[3] = Eterna round: R95, input ligand: none
[4] = input ligand: microRNA oligo, concentration not stated

Row | Sequence | apparent KD of MS2 coat protein [1] [nM] | apparent KD of MS2 coat protein [2] [nM] | apparent KD of MS2 coat protein [3] [nM] | apparent KD of MS2 coat protein (input ligand: FMN 200 uM) [nM] | apparent KD of MS2 coat protein [4] [nM] | apparent KD of MS2 coat protein (input ligand: none) [nM]
1 | UUCCAGACAGGAUAUCUAGUGAGCAACAUGAGGAUCACCCAUGUGACCAUCACCGCCCGCAGAGAAGGGUCAACAG [Inbilaus] (puzzle: Exclusion 5) | 55.4 | 41.1 | 40.2 | – | – | –
2 | GCUUUUUGUGUAGGAUAUCGCGCGCGGCGUGUGUGAGAAGGACAUGAGGAUCACCCAUGUAGCAACGGCGGCGCUGGUGUUGUC [-27, -24 kcal and 18% A] (Eterna round: R96, puzzle: Exclusion NG 1) | – | – | – | 16.7 | 10.7 | 19.5
3 | ACGCCGCAAGGAUAUACUUGCGGUGAUGUUCGAGUUCUUCUACUUGAGGAUCACCCAAGUAGAAGGUGCGAUGG [jl-ex2.4.61 ViennaUCT mod] (Eterna round: R97, puzzle: Exclusion 2) | – | – | – | 13.7 | – | 13.8
4 | CAGACCCGCCUUGGUCACAUGAGGAUCACCCAUGUUUAGGUCUAGGAUAUGGCCGUCGAGGACGGCCAGAAGGAGAAUAUCAUG [Eternabot solution 34] (Eterna round: R96, puzzle: Exclusion NG 3) | – | – | – | 102 | 32.1 | 43
5 | CGCAUGUGAGGAUAUUAGUAGUAGUCAGAAAAGACUAUUACUGAGAAGGUACAUGAGGAUCACCCAUGUAUCCG [Mat - Exclusion 4 - Eli Mod - D46] (Eterna round: R97, puzzle: Exclusion 4) | – | – | – | 25.7 | – | 13.9
6 | GCCUUGGGAGUCAGGAUAUACAAUAAAAUAAUUAAGUAGAAGGGACAUGAGGAUCACCCAUGUACAUUACAUCG [alecazam31] (Eterna round: R97, puzzle: Brourd's mod of Exclusion 4) | – | – | – | 39.5 | – | 25.7
7 | AGUCGGCGAGGAUAUACAUGAGGAUCACCCAUGUGGAAUCCUAGACCUGUAGGUCCAUGUAGAAGGCGCUGACA [Exclusion 3 - Was a mod at one point v.2] (puzzle: Exclusion 3) | 32.2 | 212 | 192 | – | – | –
8 | CUGGUGUGAGGAUAUCAGGACACGUAAGCGGGCGUGUCAAAUGAGAAGGCACAUGAGGAUCACCCAUGUGGGAC [Atbeceesxe] (puzzle: Exclusion 4) | – | 27.8 | – | – | – | –
9 | AGACUGCUGCGAGGAUAUACAUGAGGAUCACCCAUGUUUUCCUGUGAGGCAUAGCCUCACAGGAUGUAGAAGGCGCAGUAGUCA [Mat - Exclusion NG 2 - Mod of JL - D30] (Eterna round: R96, puzzle: Exclusion NG 2) | – | – | – | 13.8 | 11.2 | 11.9
10 | AAAGUGUUAGGAUAUAGGCGCAGCCAGACGCAGGAAGCGUCCUAGAAGGAACAUGAGGAUCACCCAUGUGGGCG [Eternabot (Original) Solution 41] (Eterna round: R97, puzzle: Exclusion 4) | – | – | – | 1180 | – | 364
11 | CCUCAUGGGCAGGAUAUCAGUCGAAAGUUUAUAUGAGAAGGGCCAACAUGAGGAUCACCCAUGUAAUCCCUGAC [EX6 C.14] (Eterna round: R97, puzzle: Exclusion 6) | – | – | – | 66.7 | – | 27.8
12 | UUAAAUCAUGUAGGAUAUGCGUGGCGAAGCUAUGCAGAAGGACAUGAGGAUCACCCAUGUUCUUCGGUCUGCGUACAGAUCGAA [JL ENG1 1.07] (Eterna round: R96, puzzle: Exclusion NG 1) | – | – | – | 316 | 20.6 | 26.8
13 | GCCAGAGCAGGAUAUUCAAUAUCACACAUGAGGAUCACCCAUGUCCAGCGAAAGCUGGAGGGAGAAGGGCUCUGGC [Fiskers Ex 5 - 12] (puzzle: Exclusion 5) | 18.8 | 61.4 | 88.2 | – | – | –
14 | UUGUUACAUGAGGAUCACCCAUGUGAGGAUAUGAGGGUUAGCUUAAAUGGGCUGACUUUCAGAAGGCACAUGAA [JR_Ex1_Sub058] (Eterna round: R97, puzzle: Exclusion 1) | – | – | – | 327 | – | 235
15 | GUAAACGCAGAGGAUAUUUCAGAUCCUAGCUGCAAAGAAGGCUGCACAUGAGGAUCACCCAUGUGGUCCUGAAG [Mat - Exclusion 6 - Eli Mod - D2] (Eterna round: R97, puzzle: Exclusion 6) | – | – | – | 191 | – | 68.2
16 | UAUUAGCAAGCCAAUGGGUACAUGAGGAUCACCCAUGUGCUCGUCUUAUAAGGUACUGUGACGAAAGUCACGGUACC [mod--Eli10] (Eterna round: R97, puzzle: Sensor, turn-off variant 1) | – | – | – | 16.7 | – | 17.7
17 | ACAUGUGUUGUAGGAUAUAGGAUACAUGAGGAUCACCCAUGUGGAUUCAUGUCAAUGGAAACGUCCUAGAAGGACGACAACAUG [Ex NG2 #22] (Eterna round: R96, puzzle: Exclusion NG 2) | – | – | – | 59.5 | 42.7 | 65
18 | AAAUAGCUAGAGGAUAUUGGAUAGGAUUUACUACGAGAAGGUUAGACAUGAGGAUCACCCAUGUUGUGUUGGGA [EX6 #18] (Eterna round: R97, puzzle: Exclusion 6) | – | – | – | 55.2 | – | 53.4
19 | CAUUUGUAAGGAUAUGCACCGAUCUCCGAAAGGAGAUCGGUGCAGAAGGUACAUGAGGAUCACCCAUGUUGAUG [Mod of Brourd 11 - Jieux - Exclusion 4] (Eterna round: R97, puzzle: Exclusion 4) | – | – | – | 218 | – | 33.6
20 | UAUUAGCAAGUGAGAUCCCACAUGAGGAUCACCCAUGUGCUCGUCUUAUAAGGUACUGUGACGAUAGUCACGGUACC [Mat - Sensor, turn-off var - Eli Mod - D1] (Eterna round: R97, puzzle: Sensor, turn-off variant 1) | – | – | – | 49.9 | – | 49
21 | UUUUGUCGUGACAUGGGUGACAUGAGGAUCACCCAUGUUACAAGCUUGUUGCUCGUCUUAUAAUUAACCCAUGUCAU [LRO Sensor-off var1-18 mod of Stov1-13-A1 by Brourd] (Eterna round: R97, puzzle: Sensor, turn-off variant 1) | – | – | – | 44.7 | – | 49.1
22 | CAUGCUUCGGCAUGUACAAGCUUUUUGCUCGUCUUAUUAACAUGAGGAUCACCCAUGUACAAGAGACCUCAUGUAUU [Sensor v3 - turn-off variant 2 - 11] (puzzle: Sensor v3, turn-off variant 2) | 293 | 22.9 | 338 | – | – | –
23 | UAACAGUAAGGAUAUCCAGAUCCAGACAUGAGGAUCACCCAUGUCAAAUACCUUUGACACGGAGAAGGUACGAAAA [EX5 A.26] (Eterna round: R97, puzzle: Exclusion 5) | – | – | – | 53.2 | – | 51.9
24 | AAACACUGAGGAUAUGCAUAACAACAAAGCCUCACGUGCCAACAUGAGGAUCACCCAUGUAGAAGGCAGUCCAA [Mod R3 Insanara 16 - Jieux - Exclusion 2] (Eterna round: R97, puzzle: Exclusion 2) | – | – | – | 25 | – | 30
25 | AGGAUACGAGGAUAUACGCGGAGACCUCAGGGUCUACAAACACAUGAGGAUCACCCAUGUAGAAGGCGUACCAG [Eternabot (Original) Solution 11] (Eterna round: R97, puzzle: Exclusion 2) | – | – | – | 394 | – | 42
26 | CCGAUGUCAGGAUAUAGCGGUCGCUGCCACGGUGGAGUCUGCUAGAAGGGACAUGAGGAUCACCCAUGUCGAAC [Eternabot (Original) Solution 49] (Eterna round: R97, puzzle: Exclusion 4) | – | – | – | 57.7 | – | 23.4
27 | UUGCCUAGUGUUAGGAUAUGCGACGGGUGACCGUUGCAGAAGGAACAUGAGGAUCACCCAUGUUUAAUAAAAUC [JL-BMX4-4.44 ViennaUCT mod] (Eterna round: R97, puzzle: Brourd's mod of Exclusion 4) | – | – | – | 35.9 | – | 13.2
28 | AGUACAUACACGAAAGUGUAUGUACAAUAAGCUUGUGGAACAUGAGGAUCACCCAUGUCCUCAUAAGCUCGUCUUAU [Mat - Sensor v3 - Turn-off var 2 - D30] (puzzle: Sensor v3, turn-off variant 2) | 16.5 | 71.4 | 15.5 | – | – | –
29 | GGAAUGAGAGAGGAUAUGGGAGGGAGGACCGGACCAGAAGGCUCGACAUGAGGAUCACCCAUGUGGAGAUCCUC [AK-MS2ROC-r4-exclusion6-6.11] (Eterna round: R97, puzzle: Exclusion 6) | – | – | – | 236 | – | 1480

Reference: the supplement of paper PMC9170038
